In patent EP2170953B1 (AC Immune S.A., dated 2015):

B1: ACI-11-Ab-9 (antibody, V domains shown)
VH: QVQLQQSDAELVKPGASVKISCKVSGYTFTDHTIHWMKQRPEQGLEWIGYIYPRDGSTKYNEKFKGKATLTADKSSSTAYMQLNSLTSEDSAVYFCARDYGYAFDYWGQGTTLTVSS
VL: QAVVTQESALTTSPGGTVILTCRSSTGAVTTSNYANWVQEKPDHLFTGLIGGTSNRAPGVPVRFSGSLIGDKAALTITGAQTEDDAMYFCALWYSTHYVFGGGTKVTVL
notes: also called FG1F9E4
B2: ACI-12-Ab-11 (antibody, V domains shown)
VH: B1 VH
VL: B1 VL
notes: also called FK2A6A6

Legend:
[1] = molecular target: Aβ1-42 library peptide 13; test: peptide library ELISA, Ab 10 µg/ml
[2] = molecular target: Aβ1-42 library peptide 27; test: peptide library ELISA, Ab 10 µg/ml
[3] = molecular target: Aβ1-42 library peptide 14; test: peptide library ELISA, Ab 10 µg/ml
[4] = molecular target: Aβ1-42 library peptide 23; test: peptide library ELISA, Ab 10 µg/ml
[5] = molecular target: Aβ1-42 library peptide 12; test: peptide library ELISA, Ab 10 µg/ml
Aβ1-42 library peptide 8 = test: peptide library ELISA, Ab 10 µg/ml
Aβ1-42 library peptide 9 = test: peptide library ELISA, Ab 10 µg/ml
[6] = molecular target: Aβ1-42 library peptide 21; test: peptide library ELISA, Ab 10 µg/ml
Aβ1-42 library peptide 3 = test: peptide library ELISA, Ab 10 µg/ml
Aβ1-42 library peptide 6 = test: peptide library ELISA, Ab 10 µg/ml
Aβ1-42 library peptide 1 = test: peptide library ELISA, Ab 10 µg/ml
[7] = molecular target: Aβ1-42 library peptide 29; test: peptide library ELISA, Ab 10 µg/ml
[8] = molecular target: Aβ1-42 library peptide 16; test: peptide library ELISA, Ab 10 µg/ml
[9] = molecular target: Aβ1-42 library peptide 31; test: peptide library ELISA, Ab 10 µg/ml
[10] = molecular target: Aβ1-42 library peptide 17; test: peptide library ELISA, Ab 10 µg/ml
Aβ1-42 library peptide 2 = test: peptide library ELISA, Ab 10 µg/ml
[11] = molecular target: Aβ1-42 library peptide 32; test: peptide library ELISA, Ab 10 µg/ml
[12] = molecular target: Aβ1-42 library peptide 20; test: peptide library ELISA, Ab 10 µg/ml
[13] = molecular target: Aβ1-42 library peptide 18; test: peptide library ELISA, Ab 10 µg/ml
[14] = molecular target: Aβ1-42 library peptide 28; test: peptide library ELISA, Ab 10 µg/ml
[15] = molecular target: Aβ1-42 library peptide 15; test: peptide library ELISA, Ab 10 µg/ml
[16] = molecular target: Aβ1-42 library peptide 19; test: peptide library ELISA, Ab 10 µg/ml
[17] = molecular target: Aβ1-42 library peptide 10; test: peptide library ELISA, Ab 10 µg/ml
[18] = molecular target: Aβ1-42 library peptide 25; test: peptide library ELISA, Ab 10 µg/ml
Aβ1-42 library peptide 5 = test: peptide library ELISA, Ab 10 µg/ml
[19] = molecular target: Aβ1-42 library peptide 11; test: peptide library ELISA, Ab 10 µg/ml
[20] = molecular target: Aβ1-42 library peptide 33; test: peptide library ELISA, Ab 10 µg/ml
[21] = molecular target: Aβ1-42 library peptide 26; test: peptide library ELISA, Ab 10 µg/ml
Aβ1-42 library peptide 7 = test: peptide library ELISA, Ab 10 µg/ml
[22] = molecular target: Aβ1-42 library peptide 22; test: peptide library ELISA, Ab 10 µg/ml
Aβ1-42 library peptide 4 = test: peptide library ELISA, Ab 10 µg/ml
[23] = molecular target: Aβ1-42 library peptide 24; test: peptide library ELISA, Ab 10 µg/ml
[24] = molecular target: Aβ1-42 library peptide 30; test: peptide library ELISA, Ab 10 µg/ml
[25] = molecular target: pre-aggregated Aβ1-42 (Th-T disaggregation assay); test: cell-based or functional assay
pre-aggregated Aβ1-42 (Th-T disaggregation assay), sequence (peptide, as listed by the source, form in doubt): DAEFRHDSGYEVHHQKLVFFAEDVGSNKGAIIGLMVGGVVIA

[26] = molecular target: Aβ1-42 (low-molecular weight, HFIP-treated, Th-T aggregation assay); test: cell-based or functional assay
Aβ1-42 (low-molecular weight, HFIP-treated, Th-T aggregation assay), sequence (peptide, as listed by the source, form in doubt): as above

Binder	O.D. [1]	O.D. [2]	O.D. [3]	O.D. [4]	O.D. [5]	O.D. (Aβ1-42 library peptide 8)	O.D. (Aβ1-42 library peptide 9)	O.D. [6]	O.D. (Aβ1-42 library peptide 3)	O.D. (Aβ1-42 library peptide 6)	O.D. (Aβ1-42 library peptide 1)	O.D. [7]	O.D. [8]	O.D. [9]	O.D. [10]	O.D. (Aβ1-42 library peptide 2)	O.D. [11]	O.D. [12]	O.D. [13]	O.D. [14]	also measured
B1	0.17 O.D.	0.13 O.D.	0.16 O.D.	0.11 O.D.	0.24 O.D.	0.11 O.D.	0.11 O.D.	0.1 O.D.	0.12 O.D.	0.11 O.D.	0.1 O.D.	0.2 O.D.	0.14 O.D.	0.12 O.D.	0.13 O.D.	0.1 O.D.	0.12 O.D.	0.1 O.D.	0.11 O.D.	0.12 O.D.	O.D. [15]: 0.14 O.D.; O.D. [16]: 0.1 O.D.; O.D. [17]: 0.13 O.D.; O.D. [18]: 0.11 O.D.; O.D. (Aβ1-42 library peptide 5): 0.11 O.D.; O.D. [19]: 0.11 O.D.; O.D. [20]: 0.11 O.D.; O.D. [21]: 0.12 O.D.; O.D. (Aβ1-42 library peptide 7): 0.11 O.D.; O.D. [22]: 0.1 O.D.; O.D. (Aβ1-42 library peptide 4): 0.11 O.D.; O.D. [23]: 0.1 O.D.; O.D. [24]: 0.11 O.D.; disaggregation of pre-aggregated Aβ1-42 (Th-T fluorescence), molar ratio 1:10 [25]: 52%; disaggregation of pre-aggregated Aβ1-42 (Th-T fluorescence), molar ratio 1:100 [25]: 22%; inhibition of Aβ1-42 aggregation (Th-T fluorescence), molar ratio 1:10 [26]: 69%; inhibition of Aβ1-42 aggregation (Th-T fluorescence), molar ratio 1:100 [26]: 34%
B2	0.15 O.D.	0.12 O.D.	0.12 O.D.	0.1 O.D.	0.21 O.D.	0.1 O.D.	0.1 O.D.	0.09 O.D.	0.11 O.D.	0.1 O.D.	0.1 O.D.	0.11 O.D.	0.14 O.D.	0.11 O.D.	0.12 O.D.	0.1 O.D.	0.11 O.D.	0.1 O.D.	0.1 O.D.	0.11 O.D.	O.D. [15]: 0.1 O.D.; O.D. [16]: 0.1 O.D.; O.D. [17]: 0.1 O.D.; O.D. [18]: 0.11 O.D.; O.D. (Aβ1-42 library peptide 5): 0.1 O.D.; O.D. [19]: 0.11 O.D.; O.D. [20]: 0.11 O.D.; O.D. [21]: 0.12 O.D.; O.D. (Aβ1-42 library peptide 7): 0.1 O.D.; O.D. [22]: 0.1 O.D.; O.D. (Aβ1-42 library peptide 4): 0.1 O.D.; O.D. [23]: 0.1 O.D.; O.D. [24]: 0.11 O.D.; disaggregation of pre-aggregated Aβ1-42 (Th-T fluorescence), molar ratio 1:10 [25]: 54%; disaggregation of pre-aggregated Aβ1-42 (Th-T fluorescence), molar ratio 1:100 [25]: 18%; inhibition of Aβ1-42 aggregation (Th-T fluorescence), molar ratio 1:10 [26]: 66%; inhibition of Aβ1-42 aggregation (Th-T fluorescence), molar ratio 1:100 [26]: 30%
